Results from paper PMC3338121.

Biological target: Recombinant soluble empty (peptide free) HLA-DR1 (human)
Test: competitive peptide binding assay

P2,3,7,10 SDPG peptide (HA_(306–319) substituted at P2, P3, P7 and P10), unlabeled
Kd: 313000 nM

P2 S peptide (HA_(306–319) substituted at P2), unlabeled
Kd: 97.2 nM

P2,10 SG peptide (HA_(306–319) substituted at P2 and P10), unlabeled
Kd: 373 nM

P2,7,10 SPG peptide (HA_(306–319) substituted at P2, P7 and P10), unlabeled
Kd: 605 nM
